Source: US20260242478A1 (published 2026)
Where no end group is shown, it is not given here.

B1: Phage-2718 (peptide)
peptide: TQKWCIPAWMCAER
modifications: cysteine pairing not given here; also: displayed on bacteriophage as fusion to pIII, linker not given here
B2: Phage-2712 (peptide)
peptide: WENWCRPSWMCEDT
modifications: cysteine pairing not given here; also: displayed on bacteriophage as fusion to pIII, linker not given here
B3: Phage-2716 (peptide)
peptide: VANWCTPKWMCEHV
modifications: cysteine pairing not given here; also: displayed on bacteriophage as fusion to pIII, linker not given here
B4: Phage-2719 (peptide)
peptide: DMHWCTPQWMCAPL
modifications: cysteine pairing not given here; also: displayed on bacteriophage as fusion to pIII, linker not given here
B5: Phage-2707 (peptide)
peptide: DHKWCTPPWMCAAD
modifications: cysteine pairing not given here; also: displayed on bacteriophage as fusion to pIII
B6: Phage-2703 (peptide)
peptide: TIKWCTPSWMCAEI
modifications: cysteine pairing not given here; also: displayed on bacteriophage as fusion to pIII
B7: Phage-2710 (peptide)
peptide: SVKWCTPPWMCTGL
modifications: cysteine pairing not given here; also: displayed on bacteriophage as fusion to pIII, linker not given here
B8: Phage-2714 (peptide)
peptide: HEKWCVPSWMCDDW
modifications: cysteine pairing not given here; also: displayed on bacteriophage as fusion to pIII, linker not given here
B9: Phage-2704 (peptide)
peptide: VGNWCIPLWMCAAE
modifications: cysteine pairing not given here; also: displayed on bacteriophage as fusion to pIII
B10: Phage-2713 (peptide)
peptide: NTHWCTPSWMCSAW
modifications: cysteine pairing not given here; also: displayed on bacteriophage as fusion to pIII, linker not given here
B11: Phage-2715 (peptide)
peptide: VYKWCTPSWMCADP
modifications: cysteine pairing not given here; also: displayed on bacteriophage as fusion to pIII, linker not given here
B12: Phage-2717 (peptide)
peptide: EYTWCKPAWMCDGV
modifications: cysteine pairing not given here; also: displayed on bacteriophage as fusion to pIII, linker not given here
B13: Phage-2711 (peptide)
peptide: NVSMCIPNWMCVGL
modifications: cysteine pairing not given here; also: displayed on bacteriophage as fusion to pIII, linker not given here
B14: Phage-2720 (peptide)
peptide: DWKWCTPSWMCAQK
modifications: cysteine pairing not given here; also: displayed on bacteriophage as fusion to pIII, linker not given here

Key:
[1] = biological target: T1, 006 PSMA Fab; assay: phage binding ELISA; biotinylated PSMA Fab on neutravidin plate pre-incubated with PSMA antigen as competitor, clonal phage supernatant, anti-M13 HRP detection
T1 construct: also called Anti-PSMA Fab
Experimental: (§1) Clonal phage were harvested as crude supernatants and screened via standard ELISAs. […] Prior to the addition of clonal phage. wells were incubated with blocking buffer and PSMA antigen or blocking buffer alone. Without washing or aspirating, clonal phage supernatants were then added to the wells and incubated for a short time. Wells were then washed followed by detection of bound phage using a horse radish conjugated anti-M13 antibody.

[2] = biological target: T1, 006 PSMA Fab; assay: phage binding ELISA; biotinylated PSMA Fab on neutravidin plate, clonal phage supernatant, anti-M13 HRP detection; blocking buffer alone;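 note: before phage were added, wells were preincubated with blocking buffer either containing PSMA antigen or without it, and phage were then added with no wash in between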
Experimental: as §1

[3] = biological target: PSMA Fab (anti-PSMA Fab; 006 PSMA Fab); assay: phage binding ELISA; clonal phage supernatant on biotinylated PSMA Fab captured on neutravidin plate; anti-M13 HRP detection
Experimental: as §1

[4] = biological target: PSMA Fab (anti-PSMA Fab; 006 PSMA Fab); assay: phage binding ELISA on captured PSMA Fab; wells first incubated with PSMA antigen as competitor; anti-M13 HRP detection
Experimental: as §1

[5] = biological target: T2, PSMA Fab (006 PSMA Fab); assay: clonal phage ELISA; biotinylated PSMA Fab on neutravidin plate, wells pre-incubated with PSMA antigen (competitor), anti-M13-HRP detection
T2 construct: also called Anti-PSMA Fab; anti-PSMA Fab
Experimental: as §1

[6] = biological target: T2, PSMA Fab (006 PSMA Fab); assay: clonal phage ELISA; biotinylated PSMA Fab on neutravidin plate, blocking buffer alone, anti-M13-HRP detection;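 note: crude clonal phage supernatants added without washing to wells preincubated with PSMA antigen or with blocking buffer alone, briefly incubated, then washed before bound phage detection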
Experimental: as §1

Row | Binder | Phage binding ELISA signal, Anti-PSMA Fab [3] | Phage binding ELISA signal, Anti-PSMA Fab with PSMA antigen [4] | Phage binding ELISA signal, Anti-PSMA Fab in presence of PSMA antigen [5] | Phage binding ELISA signal, Anti-PSMA Fab [6] | other results
1 | EQMWCTPAWMCTGF [Phage-2705] | – | – | – | – | Phage binding ELISA signal, Anti-PSMA Fab with PSMA antigen [1]: 0.0782; Phage binding ELISA signal, Anti-PSMA Fab [2]: 0.81
2 | WEKWCTPPWMCHDM [Phage-2732 (Peptide-180 library clone)] | 0.733 | 0.0669 | – | – | –
3 | EWKWCTPPWMCTTN [Phage-2724] | – | – | 0.0835 | 0.752 | –
4 | B1 | – | – | 0.0702 | 0.774 | –
5 | WQKWCTPMWMCEAT [Phage-2727 (Peptide-180 library clone)] | 0.744 | 0.0785 | – | – | –
6 | NVKWCVPHWMCEVS [Phage-2721] | – | – | 0.0649 | 0.765 | –
7 | B2 | – | – | 0.0568 | 0.79 | –
8 | VSNWCKPAWMCGTT [Phage-2731 (Peptide-180 library clone)] | 0.733 | 0.079 | – | – | –
9 | B3 | – | – | 0.0631 | 0.777 | –
10 | DYKWCTPPWMCYSA [Phage-2706] | – | – | – | – | Phage binding ELISA signal, Anti-PSMA Fab with PSMA antigen [1]: 0.0621; Phage binding ELISA signal, Anti-PSMA Fab [2]: 0.804
11 | IVKWCTPAWMCDQQ [Phage-2736 (Peptide-180 library clone)] | 0.72 | 0.0809 | – | – | –
12 | MDRWCTPAWMCEVH [Phage-2708] | – | – | – | – | Phage binding ELISA signal, Anti-PSMA Fab with PSMA antigen [1]: 0.0734; Phage binding ELISA signal, Anti-PSMA Fab [2]: 0.794
13 | DQKWCIPLWMCETR [Phage-2722] | – | – | 0.0727 | 0.762 | –
14 | LYNRCTPAWMCTGF [Phage-2729 (Peptide-180 library clone)] | 0.738 | 0.0657 | – | – | –
15 | B4 | – | – | 0.0856 | 0.771 | –
16 | PDNWCIPAWMCERF [Phage-2709] | – | – | – | – | Phage binding ELISA signal, Anti-PSMA Fab with PSMA antigen [1]: 0.0679; Phage binding ELISA signal, Anti-PSMA Fab [2]: 0.793
17 | B5 | – | – | – | – | Phage binding ELISA signal, Anti-PSMA Fab with PSMA antigen [1]: 0.0877; Phage binding ELISA signal, Anti-PSMA Fab [2]: 0.797
18 | B6 | – | – | – | – | Phage binding ELISA signal, Anti-PSMA Fab with PSMA antigen [1]: 0.105; Phage binding ELISA signal, Anti-PSMA Fab [2]: 0.811

Row | Binder | Phage binding ELISA signal, Anti-PSMA Fab [3] | Phage binding ELISA signal, Anti-PSMA Fab with PSMA antigen [4] | Phage binding ELISA signal, Anti-PSMA Fab in presence of PSMA antigen [5] | Phage binding ELISA signal, Anti-PSMA Fab [6] | other results
19 | B7 | – | – | 0.0767 | 0.792 | –
20 | DIKWCTPSWMCPAK [Phage-2733 (Peptide-180 library clone)] | 0.729 | 0.0862 | – | – | –
21 | HGKLCTPSWMCNGF [Phage-2735 (Peptide-180 library clone)] | 0.721 | 0.0619 | – | – | –
22 | B8 | – | – | 0.0669 | 0.784 | –
23 | DYKWCTPMWMCEVV [Phage-2723] | – | – | 0.0761 | 0.753 | –
24 | MEKMCTPQWMCDMW [Phage-2725 (Peptide-180 library clone)] | 0.749 | 0.0732 | – | – | –
25 | B9 | – | – | – | – | Phage binding ELISA signal, Anti-PSMA Fab with PSMA antigen [1]: 0.0867; Phage binding ELISA signal, Anti-PSMA Fab [2]: 0.81
26 | B10 | – | – | 0.0816 | 0.789 | –
27 | INKWCTPAWMCDLS [Phage-2726 (Peptide-180 library clone)] | 0.747 | 0.0937 | – | – | –
28 | QMPLCIPQWMCTNN [Phage-2734 (Peptide-180 library clone)] | 0.723 | 0.0562 | – | – | –
29 | B11 | – | – | 0.0676 | 0.779 | –
30 | B12 | – | – | 0.0742 | 0.774 | –
31 | B13 | – | – | 0.0891 | 0.791 | –
32 | TNNWCIPSWMCDIR [Phage-2737 (Peptide-180 library clone)] | 0.718 | 0.0629 | – | – | –
33 | EMKWCKPEWMCPWM [Phage-2730 (Peptide-180 library clone)] | 0.733 | 0.0688 | – | – | –
34 | VNPSCTPSWMCLGL [Phage-2728 (Peptide-180 library clone)] | 0.739 | 0.0793 | – | – | –
35 | B14 | – | – | 0.0639 | 0.769 | –
